Values belong to the substance of their own block, whether it stands above or below them.
Assays:
[1] = target: MbR D183A (Methanococcoides burtonii); assay: native gel or EMSA; non-denaturing PAGE (4-15% gel; 25 mM Tris, 0.19 M glycine, pH 8.3) of activated MbR incubated with 1x or 10x molar 2-CABP (relative to active sites) for 1 h at room temperature; step: L2 dimers to higher oligomers up to L10; some 2-CABP-bound samples were then incubated with 20 or 40 mM EDTA for 30 min, which did not pull the higher order complexes apart
[2] = target: MbR D366A (Methanococcoides burtonii); assay: as above
[3] = target: MbR E179A (Methanococcoides burtonii); assay: as above
[4] = target: Methanococcoides burtonii Rubisco (MbR), wild type, H6-Ub tag cleaved (Methanococcoides burtonii); assay: crystal structure; MbR activated (10 mM NaHCO3, 10 mM MgCl2) and incubated with a 10-fold molar excess of 2-CABP; hanging drop, room temperature; 2.6 Å; five LSus in the asymmetric unit, L10 by crystallographic symmetry
[5] = target: Methanococcoides burtonii Rubisco (MbR), wild type, H6-Ub tag cleaved (Methanococcoides burtonii); assay: native gel or EMSA; non-denaturing PAGE of purified, activated MbR incubated without 2-CABP: with 4-CABP or XuBP (1x, 10x molar), 3-PGA (1x, 10x, 1000x molar) or crystallization buffer alone, 1 h at room temperature; step: L2 dimers to higher oligomers

- stoichiometry N [1]: 10
Substance: MbR D183A (enzyme)

- stoichiometry N [2]: 10
Substance: MbR D366A (enzyme)

- stoichiometry N [3]: 2
Substance: MbR E179A (enzyme)

- stoichiometry N [4]: 10
- stoichiometry N [5]: 2
Substance: Methanococcoides burtonii Rubisco (MbR), wild type, H6-Ub tag cleaved (enzyme)

— paper PMC5399129
